A short description of this data set: BS3 chemical cross-linking in solution, SDS-PAGE, silver stain; association of the peptide with itself.

For KKKKPARVGLGITTVLTMTTQSSGSRA [N-K4-M2GlyR], the number of aggregates entry was “SEQ ID No. 3 comprised 12 or more aggregates”.

The values are drawn from US20070298494.
